Source: US20200306367A1 (University of Washington, published 2020)

T1: human CD180 (human, UniProt Q99467 24-661)
T1 construct: whole, on cells; Native CD180 on primary human B cells; also called RP105; Bgp95
T1 sequence: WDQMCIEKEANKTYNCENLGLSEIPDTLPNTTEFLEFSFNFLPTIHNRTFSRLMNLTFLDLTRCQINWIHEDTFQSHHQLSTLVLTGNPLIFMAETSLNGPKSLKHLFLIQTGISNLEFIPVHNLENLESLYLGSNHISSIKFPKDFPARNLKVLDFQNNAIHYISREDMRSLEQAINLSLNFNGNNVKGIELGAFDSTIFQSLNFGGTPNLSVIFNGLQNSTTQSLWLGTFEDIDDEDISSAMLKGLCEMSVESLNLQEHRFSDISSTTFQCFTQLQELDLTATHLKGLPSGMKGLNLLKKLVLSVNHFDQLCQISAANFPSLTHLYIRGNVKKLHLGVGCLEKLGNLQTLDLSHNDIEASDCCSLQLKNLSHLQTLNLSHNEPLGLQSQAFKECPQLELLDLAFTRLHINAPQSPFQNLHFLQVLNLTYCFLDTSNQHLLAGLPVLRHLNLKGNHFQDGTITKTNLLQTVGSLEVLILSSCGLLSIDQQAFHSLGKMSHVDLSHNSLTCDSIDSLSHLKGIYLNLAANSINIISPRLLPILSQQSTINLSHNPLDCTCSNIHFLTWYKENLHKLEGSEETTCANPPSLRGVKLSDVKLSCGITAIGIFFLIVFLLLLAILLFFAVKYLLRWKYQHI

B1: G28-8LH-HBcAgY132A-His (scFv)
chain: DIQMTQSPASLSASVGETVTITCRASEKIYSYLAWYQQKQGKSPQLLVYNAKTLAEGVPSRFSVSGSGTQFSLRINSLQPEDFGTYYCQHHFGSPRTFGGGTKLEIKDLGGGGSGGGGSGGGGSGGGGSTGEVQLQQSGPELVKPGASMKISCKASGYSFTGYTMNWVKQSHGKTLEWIGLINPYNGVTSYNQKFKDKATLTVDKSSSTAYMELLSLTSEDSAIYYCARDYNYDYFDYWGQGTTLTVSSGGGGSGGGGSGGGGSGGGGSMDIDPYKEFGASVELLSFLPSDFFPSIRDLLDTASALYREALESPEHCSPHHTALRQAILCWGELMNLATWVGSNLEDPASRELVVSYVNVNMGLKIRQLLWFHISCLTFGRETVLEYLVSFGVWIRTPPAARPPNAPILSTLPETTVVHHHHHH
notes: Anti-human CD180 scFv (VL-VH) fused to HBcAg(1-149) Y132A and a 6xHis tag, made in CHO cells and purified on nickel resin; the tested protein carried it, since it was detected with anti-6xHis; also called aCD180-HBVAg; HBcAg-CD180
B2: G28-8 anti-human CD180 monoclonal antibody (antibody, V domains shown)
VH: EVQLQQSGPELVKPGASMKISCKASGYSFTGYTMNWVKQSHGKTLEWIGLINPYNGVTSYNQKFKDKATLTVDKSSSTAYMELLSLTSEDSAIYYCARDYNYDYFDYWGQGTTLTVSS
VL: DIQMTQSPASLSASVGETVTITCRASEKIYSYLAWYQQKQGKSPQLLVYNAKTLAEGVPSRFSVSGSGTQFSLRINSLQPEDFGTYYCQHHFGSPRTFGGGTKLEIK
notes: Commercial parent monoclonal antibody, a whole IgG; also called G28-8 mAb; parent G28-8 antibody

Experiments:
human CD180 [1] = molecular target: T1, human CD180; assay: flow cytometry on human B cells (figure legend)
human CD180 [2] = molecular target: T1, human CD180; assay: flow cytometry competition on human B cells; 2.5 ug unlabelled G28-8 first, then 10 ug G28-8-PE

Binder	binding result (human CD180 [1])	binding result (human CD180 [2])
B1	binds	
B2		binds
